According to patent US20230002480A1:

Experiments:
Assay in all cases: cell-based or functional assay
[1] = target: HIV-1 Env of pseudovirus 928-28 (HIV-1)
[2] = target: HIV-1 Env of pseudovirus T257-31 (HIV-1)
[3] = target: HIV-1 Env of pseudovirus Ce2010_F5 (HIV-1)
[4] = target: HIV-1 Env of pseudovirus T250-4 (HIV-1)
[5] = target: HIV-1 Env of pseudovirus 3365.v2.c2 (HIV-1)
[6] = target: HIV-1 Env of pseudovirus BJOX009000.02.4 (HIV-1)
[7] = target: HIV-1 Env of pseudovirus 6952.v1.c20 (HIV-1)
[8] = target: HIV-1 Env of pseudovirus CNE21 (HIV-1)
[9] = target: HIV-1 Env of pseudovirus HIV-16055-2.3 (HIV-1)
[10] = target: HIV-1 Env of pseudovirus ZM109F.PB4 (HIV-1)
[11] = target: HIV-1 Env of pseudovirus Ce0682_E4 (HIV-1)
[12] = target: HIV-1 Env of pseudovirus 1012_11_TC21_3257 (HIV-1)
[13] = target: HIV-1 Env of pseudovirus X1254_c3 (HIV-1)
[14] = target: HIV-1 Env of pseudovirus 231966.c02 (HIV-1)
[15] = target: HIV-1 Env of pseudovirus CAAN5342.A2 (HIV-1)
[16] = target: HIV-1 Env of pseudovirus Ce1176_A3 (HIV-1)
[17] = target: HIV-1 Env of pseudovirus ZM197M.PB7 (HIV-1)
[18] = target: HIV-1 Env of pseudovirus X1632_S2_B10 (HIV-1)
[19] = target: HIV-1 Env of pseudovirus 235-47 (HIV-1)
[20] = target: HIV-1 Env of pseudovirus 7030102001E5(Rev-) (HIV-1)
[21] = target: HIV-1 Env of pseudovirus 211-9 (HIV-1)
[22] = target: HIV-1 Env of pseudovirus RHPA4259.7 (HIV-1)
[23] = target: HIV-1 Env of pseudovirus 3103.v3.c10 (HIV-1)
[24] = target: HIV-1 Env of pseudovirus P1981_C5_3 (HIV-1)
[25] = target: HIV-1 Env of pseudovirus TRJO4551.58 (HIV-1)
[26] = target: HIV-1 Env of pseudovirus MS208.A1 (HIV-1)
[27] = target: HIV-1 Env of pseudovirus 3016.v5.c45 (HIV-1)
[28] = target: HIV-1 Env of pseudovirus 0815.v3.c3 (HIV-1)
[29] = target: HIV-1 Env of pseudovirus C1080.c03 (HIV-1)
[30] = target: HIV-1 Env of pseudovirus 191955_A11 (HIV-1)
[31] = target: HIV-1 Env of pseudovirus HIV-001428-2.42 (HIV-1)
[32] = target: HIV-1 Env of pseudovirus Ce2060_G9 (HIV-1)
[33] = target: HIV-1 Env of pseudovirus 263-8 (HIV-1)
[34] = target: HIV-1 Env of pseudovirus BJOX028000.10.3 (HIV-1)
[35] = target: HIV-1 Env of pseudovirus 9004SS_A3_4 (HIV-1)
[36] = target: HIV-1 Env of pseudovirus ZM53M.PB12 (HIV-1)
[37] = target: HIV-1 Env of pseudovirus 6240_08_TA5_4622 (HIV-1)

3BNC117 (antibody)
neutralization IC50 [1]: 0.15 mg/L
neutralization IC80 [1]: 0.55 mg/L
neutralization IC50 [2]: 0.06 mg/L
neutralization IC80 [2]: 0.37 mg/L
neutralization IC50 [3]: 0.05 mg/L
neutralization IC80 [3]: 0.21 mg/L
IC50, titer in TZM.bl cells [4]: > 15 mg/L
IC80, titer in TZM.bl cells [4]: > 15 mg/L
neutralization IC50 [5]: 0.03 mg/L
neutralization IC80 [5]: 0.1 mg/L
IC50, titer in TZM.bl cells [6]: 0.4 mg/L
IC80, titer in TZM.bl cells [6]: 1.79 mg/L
IC50, titer in TZM.bl cells [7]: 0.15 mg/L
IC80, titer in TZM.bl cells [7]: 0.75 mg/L
neutralization IC50 [8]: 45.4 mg/L
neutralization IC80 [8]: > 50 mg/L
neutralization IC50 [9]: 5.6 mg/L
neutralization IC80 [9]: > 50 mg/L
neutralization IC50 [10]: 0.14 mg/L
neutralization IC80 [10]: 0.88 mg/L
neutralization IC50 [11]: 0.03 mg/L
neutralization IC80 [11]: 0.15 mg/L
neutralization IC50 [12]: 0.02 mg/L
neutralization IC80 [12]: 0.07 mg/L
IC50, titer in TZM.bl cells [13]: 0.08 mg/L
IC80, titer in TZM.bl cells [13]: 0.27 mg/L
IC50, titer in TZM.bl cells [14]: 0.29 mg/L
IC80, titer in TZM.bl cells [14]: 2.37 mg/L
neutralization IC50 [15]: 0.42 mg/L
neutralization IC80 [15]: 1.51 mg/L
neutralization IC50 [16]: 0.22 mg/L
neutralization IC80 [16]: 0.75 mg/L
neutralization IC50 [17]: 0.22 mg/L
neutralization IC80 [17]: 1.03 mg/L
IC50, titer in TZM.bl cells [18]: 15.7 mg/L
IC80, titer in TZM.bl cells [18]: > 50 mg/L
IC50, titer in TZM.bl cells [19]: 0.03 mg/L
IC80, titer in TZM.bl cells [19]: 0.12 mg/L
neutralization IC50 [20]: 0.29 mg/L
neutralization IC80 [20]: 1.44 mg/L
IC50, titer in TZM.bl cells [21]: 0.35 mg/L
IC80, titer in TZM.bl cells [21]: 1.28 mg/L
neutralization IC50 [22]: < 0.09 mg/L
neutralization IC80 [22]: < 0.09 mg/L
IC50, titer in TZM.bl cells [23]: 0.22 mg/L
IC80, titer in TZM.bl cells [23]: 0.85 mg/L
IC50, titer in TZM.bl cells [24]: 0.74 mg/L
IC80, titer in TZM.bl cells [24]: 3.62 mg/L
neutralization IC50 [25]: 0.05 mg/L
neutralization IC80 [25]: 0.19 mg/L
neutralization IC50 [26]: 0.01 mg/L
neutralization IC80 [26]: 0.09 mg/L
IC50, titer in TZM.bl cells [27]: 1.38 mg/L
IC80, titer in TZM.bl cells [27]: > 30 mg/L
IC50, titer in TZM.bl cells [28]: 0.01 mg/L
IC80, titer in TZM.bl cells [28]: 0.02 mg/L
IC50, titer in TZM.bl cells [29]: 0.25 mg/L
IC80, titer in TZM.bl cells [29]: 1.73 mg/L
neutralization IC50 [30]: > 50 mg/L
neutralization IC80 [30]: > 50 mg/L
neutralization IC50 [31]: 0.003 mg/L
neutralization IC80 [31]: 0.02 mg/L
neutralization IC50 [32]: 0.24 mg/L
neutralization IC80 [32]: 0.81 mg/L
neutralization IC50 [33]: 0.005 mg/L
neutralization IC80 [33]: 0.04 mg/L
IC50, titer in TZM.bl cells [34]: 0.01 mg/L
IC80, titer in TZM.bl cells [34]: 0.05 mg/L
neutralization IC50 [35]: 0.07 mg/L
neutralization IC80 [35]: 0.18 mg/L
neutralization IC50 [36]: 0.21 mg/L
neutralization IC80 [36]: 0.85 mg/L
neutralization IC50 [37]: 0.33 mg/L
neutralization IC80 [37]: 1.17 mg/L

NIH 45-46 (antibody)
neutralization IC50 [1]: 0.1 mg/L
neutralization IC80 [1]: 0.39 mg/L
neutralization IC50 [2]: 0.23 mg/L
neutralization IC80 [2]: 1.11 mg/L
neutralization IC50 [3]: 0.13 mg/L
neutralization IC80 [3]: 0.43 mg/L
IC50, titer in TZM.bl cells [4]: > 30 mg/L
IC80, titer in TZM.bl cells [4]: > 30 mg/L
neutralization IC50 [5]: 0.11 mg/L
neutralization IC80 [5]: 0.11 mg/L
IC50, titer in TZM.bl cells [6]: 0.26 mg/L
IC80, titer in TZM.bl cells [6]: 1.16 mg/L
IC50, titer in TZM.bl cells [7]: 0.02 mg/L
IC80, titer in TZM.bl cells [7]: 0.07 mg/L
neutralization IC50 [8]: 7.53 mg/L
neutralization IC80 [8]: > 50 mg/L
neutralization IC50 [9]: 0.02 mg/L
neutralization IC80 [9]: 0.06 mg/L
neutralization IC50 [10]: 0.22 mg/L
neutralization IC80 [10]: 0.22 mg/L
neutralization IC50 [11]: 0.07 mg/L
neutralization IC80 [11]: 0.25 mg/L
neutralization IC50 [12]: 0.01 mg/L
neutralization IC80 [12]: 0.04 mg/L
IC50, titer in TZM.bl cells [13]: 0.08 mg/L
IC80, titer in TZM.bl cells [13]: 0.08 mg/L
IC50, titer in TZM.bl cells [14]: 1.11 mg/L
IC80, titer in TZM.bl cells [14]: 11.4 mg/L
neutralization IC50 [15]: 0.11 mg/L
neutralization IC80 [15]: 0.33 mg/L
neutralization IC50 [16]: 1.29 mg/L
neutralization IC80 [16]: 5.55 mg/L
neutralization IC50 [17]: 0.14 mg/L
neutralization IC80 [17]: 0.64 mg/L
IC50, titer in TZM.bl cells [18]: 0.07 mg/L
IC80, titer in TZM.bl cells [18]: > 50 mg/L
IC50, titer in TZM.bl cells [19]: 0.3 mg/L
IC80, titer in TZM.bl cells [19]: 1.49 mg/L
neutralization IC50 [20]: 0.14 mg/L
neutralization IC80 [20]: 0.63 mg/L
IC50, titer in TZM.bl cells [21]: > 50 mg/L
IC80, titer in TZM.bl cells [21]: > 50 mg/L
neutralization IC50 [22]: < 0.05 mg/L
neutralization IC80 [22]: < 0.05 mg/L
IC50, titer in TZM.bl cells [23]: 1.66 mg/L
IC80, titer in TZM.bl cells [23]: 6.57 mg/L
IC50, titer in TZM.bl cells [24]: 0.05 mg/L
IC80, titer in TZM.bl cells [24]: 0.22 mg/L
neutralization IC50 [25]: 0.01 mg/L
neutralization IC80 [25]: 0.05 mg/L
neutralization IC50 [26]: 0.09 mg/L
neutralization IC80 [26]: 0.6 mg/L
IC50, titer in TZM.bl cells [27]: > 30 mg/L
IC80, titer in TZM.bl cells [27]: > 30 mg/L
IC50, titer in TZM.bl cells [28]: 0.01 mg/L
IC80, titer in TZM.bl cells [28]: 0.03 mg/L
IC50, titer in TZM.bl cells [29]: 1.79 mg/L
IC80, titer in TZM.bl cells [29]: 18 mg/L
neutralization IC50 [30]: 0.11 mg/L
neutralization IC80 [30]: 0.43 mg/L
neutralization IC50 [31]: < 0.001 mg/L
neutralization IC80 [31]: 0.01 mg/L
neutralization IC50 [32]: 0.14 mg/L
neutralization IC80 [32]: 0.48 mg/L
neutralization IC50 [33]: 0.05 mg/L
neutralization IC80 [33]: 0.1 mg/L
IC50, titer in TZM.bl cells [34]: 0.07 mg/L
IC80, titer in TZM.bl cells [34]: > 50 mg/L
neutralization IC50 [35]: 0.18 mg/L
neutralization IC80 [35]: 0.65 mg/L
neutralization IC50 [36]: 0.65 mg/L
neutralization IC80 [36]: 0.65 mg/L
neutralization IC50 [37]: 0.44 mg/L
neutralization IC80 [37]: 1.55 mg/L
